Test system: K4 kissing-loop RNA reporter
Test: apparent KD of K4 kissing-loop reporter; higher = weaker reporter binding
Conditions: Eterna round: R107
Method: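 RNA-MaP round R107: designed RNA switches with theophylline, tryptophan, arginine or FMN aptamers are transcribed on-chip within common flanks. They are titrated with a labelled K4 kissing-loop RNA reporter in RNA-MaP buffer (100 mM Tris pH 7.5, 80 mM KCl, 4 mM MgCl2), without ligand or with the indicated ligand. Median apparent KD per design.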

[1] = input ligand: theophylline 20 uM
[2] = input ligand: tryptophan 2.4 mM
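Also: bound reporter read as fluorescence of individual clusters on recovered sequencing chips by microscopy, with normalized cluster intensities fitted with a binding model.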

Sequence | apparent KD of K4 kissing-loop reporter (input ligand: FMN 200 uM) [nM] | apparent KD of K4 kissing-loop reporter (input ligand: arginine 13.2 mM) [nM] | apparent KD of K4 kissing-loop reporter (input ligand: none) [nM] | apparent KD of K4 kissing-loop reporter [1] [nM] | apparent KD of K4 kissing-loop reporter [2] [nM]
UAAUCCUAGUGAUAAUAAUCAAGUGGUGGGCGAGGACCGGUACGGCCGCCACUCGAAUAUGCAGUGAUGUUGUAAUCCGGAUAAU [Exclusion - Tryptophan A (Freestyle 6)] | 667 | 926 | 919 | 894 | 594
CGUGCCCAGCCGGAUACCAGUGACCCGCUGGGAACCGCGGGCCCAGAGUGAUGUUCGGGACACCCUUGGCAGCCGCCUGGGCGGG [#2 Same State - Theophylline B Attempt #15 (HarryS)] | 1020 | 392 | 1100 | 512 | 453
AGUACAACUGCGGCCGCCACUCAACGCAGAUCAAAGAUCUGCAUUCACUCAGUGAUGUUGAGUGAGAGGACCGGGCAGUUGUACA [Omei KL Tryp B SS B v3] | 855 | 718 | 742 | 645 | 166
AAAAUAAACCAGUGAUGUUGGUGUCUAGAUACCAGCGAUAAUAAUCGCCCUUGGCAGCUACGGACGUACAAAAUAAGUACGUCCU [MatMod 10 - Jieux - Same State - Theophylline A] | 543 | 375 | 454 | 485 | 460
GCCAGAGCGCGAAGGAGCGCCGUGACAGGUUACUGCCUUGGGCAGUGAUGUUGCUCAAUCUGGCAGGUAGGUCGCGUGCUCUGGC | 179 | 185 | 215 | 202 | 168
UAAUUUAUGUCUUUAAUAUAAUUUUCAGAUACCAGUGAUUAUUAACACCCUUGGCAGCUGUAUAGAGUGAUGUUCUUAUGCUUAA [JR_ExcTheophyA_Sub009] | 213 | 314 | 237 | 321 | 156
AAACAUUGGUCGGAUACCAGUUAGACCGAUAAGGUCAAAACUGGAGUGAUGUUCCCAAAUAACCCUUGGCAGCCGACCGAUGAAA [MAT - Same State Theophlline B - Mod of Eli - D11] | 193 | 121 | 167 | 205 | 221
GAUAUAGUGAUGUUAUAUACUGAUAGACAACGAGGACCGGUACGGCCGCCACUCGAGAGGGUGAAAAUGAUGAUAAAAUAAUAAU [#01 K4 Tryptophan A Exclusion] | 341 | 283 | 341 | 374 | 269
GCAUCCGAUGCAGGAUAUAGAUGAACGAGUGAUGUUUGGAAUUUAUGUCCAAAGCCUACGAUCAAACUAGAAGGGCAUCGGAUGC | 334 | 266 | 161 | 167 | 192
UUAGUCUAGAGAAGGAGCGCAGUGAUGUUGCGAAUAAUAAUAAUAAUAAAUAAAUAAUCGAUGCAGGUAGGUCGCUCUAGACAUU [AK1 Exc Arginine B] | 217 | 422 | 288 | 335 | 213
GGAUAGGACAGAGGAUAUCCAGUGAUGUUGGAGAAUUCUCCUUCAACAUGUCACAAAAGUGGCAUGGGAGAAGGCUGUCCUAUCG [Mod of Eli's FmnBX 29 v2] | 388 | 120 | 122 | 99.7 | 108
AUACCUCUACGAGUGAUGUUUGUUGAGGAUACCAGCAUGUAUAGUUGCCCUUGGCAGCCUUGGCUCGUGCGCUCCCUCCGAACCG [theeternabot_exclusion_KL_Theo_A_30] | 296 | 240 | 291 | 277 | 247
GGUAGCGCCAGAGAUACCAGUCAUAUCGCUCUGGAGUGAUGUUCCGGAACGUGCGGAGAAGACCCUUGGCAGCUCAUGACGGUAU [Exclusion Theophylline B GF 3] | 219 | 175 | 189 | 227 | 171
UGACAUUGCUCAGAUACCAGACCUGAGGAUCACCCUGGUGCCAAACGUACAAUAAUAAAUGUCCCUUGGCAGCUGAGCAAUGUCU [TheoBX 14] | 77.8 | 27.6 | 44.9 | 139 | 52.4
UAAUUUAUUUCUUUUAUAUAAUAAUCAGAUACCAGUGAUUAAUGUCACCCUUGGCAGCUGUAUAGAGUGAUGUUCUAAUGCUUAA [JR_SSTheophyA_Sub022] | 176 | 169 | 142 | 233 | 147
CCUUCUCUUGGUAGUGAUGUUAUCAAGGACAAGGAUAUCAUCUCAAUGAGAAGGUGUCCUUGAUAACAUGGAGGUCUGAAACAGA [Omei KL FMN A Exc C v8] | 65.5 | 352 | 174 | 455 | 615

Sequence | apparent KD of K4 kissing-loop reporter (input ligand: FMN 200 uM) [nM] | apparent KD of K4 kissing-loop reporter (input ligand: arginine 13.2 mM) [nM] | apparent KD of K4 kissing-loop reporter (input ligand: none) [nM] | apparent KD of K4 kissing-loop reporter [1] [nM] | apparent KD of K4 kissing-loop reporter [2] [nM]
GCCGUACGCAUGGAUACCAGUCUUAGAGUGAUGUUCUAAACGAUUGCGCCUGGAUCAAUGGACCCUUGGCAGCCAUGCGUACGGC | 130 | 119 | 129 | 92.4 | 154
CGCAGUGAUGUUGCGAGUAGCUACAGGGAAGGAGCGUGCUAGAGCACAGGUAGGUCGCCCACGCAGUGAUGUUGUGUCAAAGGGU [Exclusion Arginine A GF 11] | 167 | 168 | 165 | 179 | 146
UCGCUCGAGUAAGGAUAUCAAUAUCAAAGGUCGUAGUGAUGUUAUACCAGGCCAAUUUGGCGGUAGUGAGAAGGUACUAGCAGUU [theeternabot_sameState_KL_FMN_B_38] | 1090 | 294 | 688 | 461 | 405
AGAGAUAUAUGAGGAUAUGGGAUAGUUAAUGAGUUAGUUUUAGUGUUGUUUGGUUAGUGAUGUUAUUUAGAAGGCGUGAGUGAUG [rxxvgmullin] | 106 | 75.8 | 81.7 | 109 | 71.1
CUGAGCUGCAGCGAUACCAGUGUGGAGUGAUGUUCCCUGGUCCGGGCUGUUGUUCCCUUGCGCCCUUGGCAGCGCAGGAGCAGGG [Exclusion Theophylline B GF 15] | 506 | 352 | 422 | 378 | 383
GCAAAACUCAGUGAUGUUGAGAUAUCGGAAGGAGCGCGUGAAAACGCAGGUAGGUCGCCGAUUCAAUGAGUUUCUCGUUGUUUGC [Arginine A K4 20] | 248 | 305 | 318 | 303 | 288
AGUGAUGUUGUGUUAUGUUAGUGAAGUGAUCGAGGACCGGUACGGCCGCCACUCGAGUGAUGAGUGAGUGAUGUUUGUUUAGGGA [popmullin] | 1100 | 674 | 1140 | 990 | 486
AUGUCUGAUAGCAGUGAUGUUGCUUCAGAUACCAGACGAGAUCAUGUCCCUUGGCAGCUGACACGGCACGUGCUAGGUUAGAUGA [whbob_Ex_Theo_A_th71] | 117 | 94.4 | 118 | 102 | 102
AGGAUCACGUCAGUGAUGUUGACGAGAGAUACCAGAGACGAAAGUCUCCCUUGGCAGCUCAUCGUGAUCCGUGACAAAGGUCACA [Omei KL hio A SS C v4] | 338 | 203 | 317 | 278 | 297
GGGAUGUAGGGAAGGAGCGCUUUGCGAAUAUUAAUGAGUGAUGUUCGUAGAUAUUUGUAAUGGCAGGUAGGUCGCCCUAUAUCCC [Skye_SS_AB] | 197 | 131 | 166 | 151 | 157
UGUACCGAGUCAGGAUAUCAACGACUGACAAAGUCGGUCGAAUAUCCAGUGAUGUUGGAAAAUAAAUGAGAAGGGACUUGGUACU [FmnBS 12 #SwitchBubble #StaticStem] | 137 | 361 | 360 | 341 | 344
AGUAGUCGACAAGGAUAUACUAGGAGAGACGUUUGCACAUAACCUGCCCUACGAAGUGAUGUUUCGGUAGAAGGUGUUGGGCUGU [theeternabot_exclusion_KL_FMN_B_34] | 96.5 | 67 | 87.6 | 82.9 | 71.5
UAAUCCUAGUGAUAAUAAUCAAGUGGUGGGCGAGGACCGGUACGGCCGCCACUCGAAAAUGCAGUGAUGUUGUAAUCCGGAUAAU [Exclusion - Tryptophan A (Freestyle 5)] | 798 | 874 | 1080 | 872 | 450
ACGCUGGUGAAUAACACUAGCGAAAAUUCGCGAGGACCGGUACGGCCGCCACUCGCUAACUGCGAGUGAUGUUCGAUAAUAAAAU [Mat - Mod of OpenEnded 3 - D8] | 233 | 67.5 | 165 | 169 | 112
UGUAAGCGCGUAGAUACCAGCAGACGAGUGAUGUUCGAGAGAUUAAGGAAAAGAAAGUGAUGCCCUUGGCAGCUAAUCAUAAGCG [whbob_Ex_Theo_B_sa95] | 278 | 300 | 288 | 323 | 182

— the supplement of paper PMC9170038
